Measured values reported in patent publication US20100316636A1.

Columns and labels:
[1] = molecular target: recombinant monkey monomeric IL-6R protein (Macaca fascicularis, extracellular domain) (Macaca fascicularis); assay: SPR (BIAcore), antibody captured on anti-mouse Fc, monomeric IL-6R 1.25-40 nM injected
[2] = molecular target: recombinant human IL-6R protein, monomeric form (human) (UniProt P08887); assay: as above
hIL-6R-hFc (human) = hIL-6R-hFc (human) (UniProt P08887); assay: blocking immunoassay: 100 pM hIL-6R-hFc premixed with titrated antibody, free hIL-6R-hFc captured on coated hIL-6
[3] = molecular target: recombinant human IL-6R protein, monomeric form (human) (UniProt P08887); assay: SPR (BIAcore), captured antibody, monomeric hIL-6R injected
[4] = molecular target: human IL-6 receptor on hIL-6-responsive cells (XG-1 myeloma line, HepG2 hepatoma line) (human) (UniProt P08887); assay: cell-based or functional assay
[5] = molecular target: recombinant human IL-6R protein, monomeric form (human) (UniProt P08887); assay: Kinexa solution-phase competition immunoassay, monomer

Chain of recombinant human IL-6R protein, monomeric form (human) (P08887 20-358 limits assumed): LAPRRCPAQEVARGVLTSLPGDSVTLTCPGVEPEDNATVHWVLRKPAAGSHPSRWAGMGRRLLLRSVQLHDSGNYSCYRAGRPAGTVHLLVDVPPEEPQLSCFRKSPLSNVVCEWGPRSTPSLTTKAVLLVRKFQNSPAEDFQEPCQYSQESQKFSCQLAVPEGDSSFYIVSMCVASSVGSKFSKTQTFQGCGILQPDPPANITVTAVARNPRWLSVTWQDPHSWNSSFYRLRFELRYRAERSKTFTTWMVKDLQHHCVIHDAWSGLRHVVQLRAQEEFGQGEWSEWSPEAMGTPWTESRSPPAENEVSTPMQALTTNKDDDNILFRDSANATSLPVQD
Chain of human IL-6 receptor on hIL-6-responsive cells (XG-1 myeloma line, HepG2 hepatoma line) (human) (P08887 20-468): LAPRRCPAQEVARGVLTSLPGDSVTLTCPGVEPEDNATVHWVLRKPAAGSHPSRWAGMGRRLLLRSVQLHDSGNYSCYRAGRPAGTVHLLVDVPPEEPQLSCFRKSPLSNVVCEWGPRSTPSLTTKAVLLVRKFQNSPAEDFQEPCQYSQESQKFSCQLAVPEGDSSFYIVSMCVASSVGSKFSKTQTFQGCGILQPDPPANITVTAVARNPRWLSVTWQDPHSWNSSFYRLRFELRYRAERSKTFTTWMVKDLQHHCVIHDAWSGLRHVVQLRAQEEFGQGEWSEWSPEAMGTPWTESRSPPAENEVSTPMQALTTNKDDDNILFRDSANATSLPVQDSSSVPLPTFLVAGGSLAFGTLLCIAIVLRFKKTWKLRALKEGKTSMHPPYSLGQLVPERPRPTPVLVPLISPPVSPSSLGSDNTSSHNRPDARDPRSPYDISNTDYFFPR
Chain of hIL-6R-hFc (human) (P08887 20-358): as the sequence (P08887 20-358 limits assumed) above
Chain of recombinant monkey monomeric IL-6R protein (Macaca fascicularis, extracellular domain) (Macaca fascicularis) (P08887 other isoform, or with tags, fused parts or gaps): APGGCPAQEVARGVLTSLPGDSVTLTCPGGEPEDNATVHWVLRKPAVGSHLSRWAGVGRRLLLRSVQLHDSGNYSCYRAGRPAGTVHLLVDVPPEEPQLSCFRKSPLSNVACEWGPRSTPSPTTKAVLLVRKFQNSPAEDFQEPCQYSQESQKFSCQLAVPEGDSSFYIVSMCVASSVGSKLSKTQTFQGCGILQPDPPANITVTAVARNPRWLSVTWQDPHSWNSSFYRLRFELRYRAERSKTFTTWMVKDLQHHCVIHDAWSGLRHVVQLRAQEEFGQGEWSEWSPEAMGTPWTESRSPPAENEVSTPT

Kd [1]: 1.17 nM
Kd [2]: 0.963 nM
IC50 (hIL-6R-hFc (human)): 2.2 nM
Kd [3]: 1.79 nM
HepG2/Stat3 Luciferase activity IC50 [4]: 0.854 nM
XG-1 cell proliferation Inhibition IC50 [4]: 1.5 nM
Kd [5]: 1.96 nM
Substance: control: humanized monoclonal antibody to human IL-6R (U.S. Pat. No. 5,817,790 SEQ ID NO:69 and 71)
